{"source": "patent US20200109188A1", "about": "(AstraZeneca / MedImmune, published 2020)", "binders": {"B1": {"name": "Antibody 3 (antibody, V domains shown)", "VH": "QVQLQESGPGLVKPSQTLSLTCAISGDSVSSNNAVWNWIRQSPSRGLEWLGRTYYRSKWYNDYAESVKSRITVNPDTSKNQFSLHLKSVTPEDTAVFYCVRSGHITVFGVNVDAFDMWGQGTMVTVSS", "VL": "DIQMTQSPSSLSASVGDRVTITCRTSQSLSSYLHWYQQKPGKAPKLLIYAASSLQSGVPSRFSGSGSGTDFTLTISSLQPEDFATYYCQQSRTFGQGTKVEIK"}}, "key": {"[1]": {"target": "T1, HA of ca A/New Caledonia/20/99 (H1N1) virus (influenza A virus)", "test": "cell-based or functional assay"}, "[2]": {"target": "T2, HA of ca A/swine/Missouri/06 (H2N3) virus (influenza A virus)", "test": "cell-based or functional assay"}, "[3]": {"target": "T3, HA of ca A/teal/Hong Kong/W312/97 (H6N1) virus (influenza A virus)", "test": "cell-based or functional assay"}, "[4]": {"target": "T4, HA of ca A/chicken/Hong Kong/G9/97 (H9N2) virus (influenza A virus)", "test": "cell-based or functional assay"}, "[5]": {"target": "HA of A/Hong Kong/8/68 (H3N2) virus (influenza A virus)", "test": "cell-based or functional assay"}, "[6]": {"target": "HA of ca A/Sydney/5/97 (H3N2) virus (influenza A virus)", "test": "cell-based or functional assay"}, "[7]": {"target": "HA of A/Wisconsin/67/05 (H3N2) virus (influenza A virus)", "test": "cell-based or functional assay"}, "[8]": {"target": "HA of ca A/Perth/16/09 (H3N2) virus (influenza A virus)", "test": "cell-based or functional assay"}, "[9]": {"target": "T5, HA of ca A/Netherlands/219/03 (H7N7) virus (influenza A virus)", "test": "cell-based or functional assay"}, "[10]": {"target": "HA of A/Fort Monmouth/1/47 (H1N1) virus (influenza A virus)", "test": "cell-based or functional assay"}, "[11]": {"target": "HA of A/New Jersey/8/76 (H1N1) virus (influenza A virus)", "test": "cell-based or functional assay"}, "[12]": {"target": "HA of A/Kawasaki/9/86 (H1N1) virus (influenza A virus)", "test": "cell-based or functional assay"}, "[13]": {"target": "HA of ca A/Texas/36/91 (H1N1) virus (influenza A virus)", "test": "cell-based or functional assay"}, "[14]": {"target": "HA of ca A/Beijing/262/95 (H1N1) virus (influenza A virus)", "test": "cell-based or functional assay"}, "[15]": {"target": "T1, HA of ca A/New Caledonia/20/99 (H1N1) …", "test": "cell-based or functional assay", "remark": "listed apart in the source"}, "[16]": {"target": "HA of H1-BS10 virus", "test": "cell-based or functional assay"}, "[17]": {"target": "HA of ca A/Japan/57 (H2N2) virus (influenza A virus)", "test": "cell-based or functional assay"}, "[18]": {"target": "T2, HA of ca A/swine/Missouri/06 (H2N3) …", "test": "cell-based or functional assay", "remark": "listed apart in the source"}, "[19]": {"target": "HA of ca A/Vietnam/1203/04 (H5N1) virus (influenza A virus)", "test": "cell-based or functional assay"}, "[20]": {"target": "HA of ca A/Hong Kong/213/03 (H5N1) virus (influenza A virus)", "test": "cell-based or functional assay"}, "[21]": {"target": "HA of ca A/mallard/Alberta/89/85 (H6N2) virus (influenza A virus)", "test": "cell-based or functional assay"}, "[22]": {"target": "T3, HA of ca A/teal/Hong Kong/W312/97 …", "test": "cell-based or functional assay", "remark": "listed apart in the source"}, "[23]": {"target": "T4, HA of ca A/chicken/Hong Kong/G9/97 …", "test": "cell-based or functional assay", "remark": "listed apart in the source"}, "[24]": {"target": "HA of A/Hong Kong/8/68 (H3N2) virus (influenza A virus)", "test": "cell-based or functional assay", "remark": "listed apart in the source"}, "[25]": {"target": "HA of A/Victoria/3/75 (H3N2) virus (influenza A virus, UniProt P03435 17-567)", "sequence (P03435 17-567 limits assumed)": "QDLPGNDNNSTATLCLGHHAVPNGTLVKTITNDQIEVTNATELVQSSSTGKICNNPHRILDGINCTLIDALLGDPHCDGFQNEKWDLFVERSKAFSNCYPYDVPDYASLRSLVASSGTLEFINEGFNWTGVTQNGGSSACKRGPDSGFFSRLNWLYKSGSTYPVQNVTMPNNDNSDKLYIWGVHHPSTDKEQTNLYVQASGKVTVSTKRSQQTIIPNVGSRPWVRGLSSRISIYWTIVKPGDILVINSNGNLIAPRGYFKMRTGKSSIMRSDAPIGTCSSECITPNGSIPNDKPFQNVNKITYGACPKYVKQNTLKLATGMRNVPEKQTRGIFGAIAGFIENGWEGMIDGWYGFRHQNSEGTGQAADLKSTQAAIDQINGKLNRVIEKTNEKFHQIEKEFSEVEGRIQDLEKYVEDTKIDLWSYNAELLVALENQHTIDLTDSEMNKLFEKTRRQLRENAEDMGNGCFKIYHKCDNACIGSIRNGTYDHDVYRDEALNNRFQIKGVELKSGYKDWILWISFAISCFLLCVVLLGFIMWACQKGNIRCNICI", "test": "cell-based or functional assay"}, "[26]": {"target": "HA of H3-LA87 (A/Los Angeles/7/09 (H3N2)) virus (influenza A virus)", "test": "cell-based or functional assay"}, "[27]": {"target": "HA of ca A/Sydney/5/97 (H3N2) virus (influenza A virus)", "test": "cell-based or functional assay", "remark": "listed apart in the source"}, "[28]": {"target": "HA of ca A/Panama/2007/99 (H3N2) virus (influenza A virus)", "test": "cell-based or functional assay"}, "[29]": {"target": "HA of A/Wisconsin/67/05 (H3N2) virus (influenza A virus)", "test": "cell-based or functional assay", "remark": "listed apart in the source"}, "[30]": {"target": "HA of ca A/Perth/16/09 (H3N2) virus (influenza A virus)", "test": "cell-based or functional assay", "remark": "listed apart in the source"}, "[31]": {"target": "HA of A/Victoria/361/11 (H3N2) virus (influenza A virus)", "test": "cell-based or functional assay"}, "[32]": {"target": "T5, HA of ca A/Netherlands/219/03 (H7N7) …", "test": "cell-based or functional assay", "remark": "listed apart in the source"}, "[33]": {"target": "HA of ca A/Brit. Columbia/CN-6/04 (H7N3-LP) virus (influenza A virus)", "test": "cell-based or functional assay"}, "[34]": {"target": "HA of ca A/Anhui/1/13 (H7N9) virus (influenza A virus)", "test": "cell-based or functional assay"}, "[35]": {"target": "HA subtype H4 (A/duck/Czechoslovakia/56 (H4N6)) on HEK cells (influenza A virus, UniProt P19696 17-564)", "sequence (P19696 17-564)": "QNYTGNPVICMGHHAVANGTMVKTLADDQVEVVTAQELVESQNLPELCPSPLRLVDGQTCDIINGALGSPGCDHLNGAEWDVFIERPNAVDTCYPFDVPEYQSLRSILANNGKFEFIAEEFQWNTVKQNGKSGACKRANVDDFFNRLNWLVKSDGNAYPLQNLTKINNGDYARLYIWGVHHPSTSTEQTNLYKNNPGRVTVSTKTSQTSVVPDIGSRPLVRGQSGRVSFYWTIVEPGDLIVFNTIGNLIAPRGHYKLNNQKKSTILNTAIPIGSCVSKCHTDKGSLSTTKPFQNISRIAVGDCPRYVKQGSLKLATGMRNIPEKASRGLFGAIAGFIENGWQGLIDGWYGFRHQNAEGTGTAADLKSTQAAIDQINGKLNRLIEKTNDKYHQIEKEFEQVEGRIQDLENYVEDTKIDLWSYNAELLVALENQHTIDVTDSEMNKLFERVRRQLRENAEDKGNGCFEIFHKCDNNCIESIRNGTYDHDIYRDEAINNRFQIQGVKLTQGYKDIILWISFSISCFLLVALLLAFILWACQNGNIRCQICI", "test": "flow cytometry, HA-transfected HEK cells, 5 ug/ml antibody"}, "[36]": {"target": "HA subtype H10 (A/chicken/Germany/N49 (H10N7)) on HEK cells (influenza A virus, UniProt P12581 17-561)", "sequence (P12581 17-561)": "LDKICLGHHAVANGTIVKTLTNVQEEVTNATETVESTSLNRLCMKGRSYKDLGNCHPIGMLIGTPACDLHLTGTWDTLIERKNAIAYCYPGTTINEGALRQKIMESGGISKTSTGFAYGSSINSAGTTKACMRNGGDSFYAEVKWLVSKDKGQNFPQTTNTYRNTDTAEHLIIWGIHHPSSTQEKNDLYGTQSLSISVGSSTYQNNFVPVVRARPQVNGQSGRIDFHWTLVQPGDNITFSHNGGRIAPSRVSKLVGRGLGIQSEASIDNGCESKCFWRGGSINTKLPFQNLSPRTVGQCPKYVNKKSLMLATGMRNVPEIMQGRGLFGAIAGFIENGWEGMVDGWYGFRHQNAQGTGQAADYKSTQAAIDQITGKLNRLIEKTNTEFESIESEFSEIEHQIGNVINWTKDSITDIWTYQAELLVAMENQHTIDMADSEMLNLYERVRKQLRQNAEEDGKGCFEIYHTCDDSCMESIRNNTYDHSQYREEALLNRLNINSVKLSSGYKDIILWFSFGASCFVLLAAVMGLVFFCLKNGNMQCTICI", "test": "flow cytometry, HA-transfected HEK cells, 5 ug/ml antibody"}, "[37]": {"target": "HA subtype H13 (A/gull/Maryland/704/77 (H13N6)) on HEK cells (influenza A virus, UniProt P13103 19-566)", "sequence (P13103 19-566)": "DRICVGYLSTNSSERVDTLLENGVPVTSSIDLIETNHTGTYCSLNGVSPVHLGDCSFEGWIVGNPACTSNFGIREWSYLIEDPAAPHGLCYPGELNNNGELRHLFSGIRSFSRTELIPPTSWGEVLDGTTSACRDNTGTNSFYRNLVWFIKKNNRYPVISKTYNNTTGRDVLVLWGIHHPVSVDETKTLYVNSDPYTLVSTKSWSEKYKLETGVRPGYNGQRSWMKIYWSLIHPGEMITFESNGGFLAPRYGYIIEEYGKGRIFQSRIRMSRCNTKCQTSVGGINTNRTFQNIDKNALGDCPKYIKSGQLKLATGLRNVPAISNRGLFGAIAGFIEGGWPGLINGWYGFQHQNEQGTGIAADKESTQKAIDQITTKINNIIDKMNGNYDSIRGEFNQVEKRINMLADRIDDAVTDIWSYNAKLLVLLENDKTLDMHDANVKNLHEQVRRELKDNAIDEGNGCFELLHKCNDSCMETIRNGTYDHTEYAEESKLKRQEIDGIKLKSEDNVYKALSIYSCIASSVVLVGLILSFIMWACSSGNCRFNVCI", "test": "flow cytometry, HA-transfected HEK cells, 5 ug/ml antibody"}, "[38]": {"target": "HA subtype H14 (A/mallard/Astrakhan/263/82 (H14N5)) on HEK cells (influenza A virus, UniProt P26136 18-568)", "sequence (P26136 18-568)": "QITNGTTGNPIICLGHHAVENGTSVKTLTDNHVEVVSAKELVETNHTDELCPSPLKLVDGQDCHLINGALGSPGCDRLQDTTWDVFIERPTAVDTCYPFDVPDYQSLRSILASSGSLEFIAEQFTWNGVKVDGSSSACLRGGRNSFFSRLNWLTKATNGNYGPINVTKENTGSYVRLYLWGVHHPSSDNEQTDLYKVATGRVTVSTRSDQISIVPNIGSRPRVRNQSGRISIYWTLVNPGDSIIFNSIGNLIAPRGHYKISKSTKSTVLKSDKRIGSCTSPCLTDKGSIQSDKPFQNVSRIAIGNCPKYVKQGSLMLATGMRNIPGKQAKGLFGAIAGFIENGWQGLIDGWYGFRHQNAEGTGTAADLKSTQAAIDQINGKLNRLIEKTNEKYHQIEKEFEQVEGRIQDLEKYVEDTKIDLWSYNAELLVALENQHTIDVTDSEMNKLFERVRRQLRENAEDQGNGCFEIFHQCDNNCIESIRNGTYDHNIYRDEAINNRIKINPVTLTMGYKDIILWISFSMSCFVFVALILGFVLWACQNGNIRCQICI", "test": "flow cytometry, HA-transfected HEK cells, 5 ug/ml antibody"}}, "note": "Where two headings read alike, the source gives them in different places."}
{"binder": "B1", "values": [{"measurement": "Neutralization IC50, H1-Ncal99", "setting": "[1]", "value": 0.79, "unit": "µg/mL"}, {"measurement": "Neutralization IC50, H2-MO06", "setting": "[2]", "value": 2.27, "unit": "µg/mL"}, {"measurement": "Neutralization IC50, H6-HK97", "setting": "[3]", "value": 1.77, "unit": "µg/mL"}, {"measurement": "Neutralization IC50, H9-HK97", "setting": "[4]", "value": 1.79, "unit": "µg/mL"}, {"measurement": "Neutralization IC50, H3-HK68", "setting": "[5]", "value": 0.68, "unit": "µg/mL"}, {"measurement": "Neutralization IC50, H3-Syd97", "setting": "[6]", "value": 3.75, "unit": "µg/mL"}, {"measurement": "Neutralization IC50, H3-Wl05", "setting": "[7]", "value": 2.44, "unit": "µg/mL"}, {"measurement": "Neutralization IC50, H3-Perth09", "setting": "[8]", "value": 1.49, "unit": "µg/mL"}, {"measurement": "Neutralization IC50, H7-NLD03", "setting": "[9]", "value": 4.78, "unit": "µg/mL"}, {"measurement": "Neutralization IC50, H1-FM47", "setting": "[10]", "value": 1.04, "unit": "µg/mL"}, {"measurement": "Neutralization IC50, H1-NJ76", "setting": "[11]", "value": 0.57, "unit": "µg/mL"}, {"measurement": "Neutralization IC50, H1-Kaw86", "setting": "[12]", "value": 1.01, "unit": "µg/mL"}, {"measurement": "Neutralization IC50, H1-TX91", "setting": "[13]", "value": 0.92, "unit": "µg/mL"}, {"measurement": "Neutralization IC50, H1-BJ95", "setting": "[14]", "value": 2.98, "unit": "µg/mL"}, {"measurement": "Neutralization IC50, H1-Ncal99", "setting": "[15]", "value": 1.16, "unit": "µg/mL"}, {"measurement": "Neutralization IC50, H1-BS10", "setting": "[16]", "value": 2.16, "unit": "µg/mL"}, {"measurement": "Neutralization IC50, H2-JP57", "setting": "[17]", "value": 0.46, "unit": "µg/mL"}, {"measurement": "Neutralization IC50, H2-MO06", "setting": "[18]", "value": 1.09, "unit": "µg/mL"}, {"measurement": "Neutralization IC50, H5-VM04", "setting": "[19]", "value": 1.19, "unit": "µg/mL"}, {"measurement": "Neutralization IC50, H5-HK03", "setting": "[20]", "value": 0.71, "unit": "µg/mL"}, {"measurement": "Neutralization IC50, H6-AB85", "setting": "[21]", "value": 0.69, "unit": "µg/mL"}, {"measurement": "Neutralization IC50, H6-HK97", "setting": "[22]", "value": 0.63, "unit": "µg/mL"}, {"measurement": "Neutralization IC50, H9-HK97", "setting": "[23]", "value": 1.18, "unit": "µg/mL"}, {"measurement": "Neutralization IC50, H3-HK68", "setting": "[24]", "value": 1.37, "unit": "µg/mL"}, {"measurement": "Neutralization IC50, H3-Vic75", "setting": "[25]", "value": 1.12, "unit": "µg/mL"}, {"measurement": "Neutralization IC50, H3-LA87", "setting": "[26]", "value": 2.04, "unit": "µg/mL"}, {"measurement": "Neutralization IC50, H3-Syd97", "setting": "[27]", "value": 6.5, "unit": "µg/mL"}, {"measurement": "Neutralization IC50, H3-Pa99", "setting": "[28]", "value": 9, "unit": "µg/mL"}, {"measurement": "Neutralization IC50, H3-Wl05", "setting": "[29]", "value": 2.62, "unit": "µg/mL"}, {"measurement": "Neutralization IC50, H3-Perth09", "setting": "[30]", "value": 1.3, "unit": "µg/mL"}, {"measurement": "Neutralization IC50, H3-VC11", "setting": "[31]", "value": 3.4, "unit": "µg/mL"}, {"measurement": "Neutralization IC50, H7-NLD03", "setting": "[32]", "value": 4.74, "unit": "µg/mL"}, {"measurement": "Neutralization IC50, H7-BC04", "setting": "[33]", "value": 2.95, "unit": "µg/mL"}, {"measurement": "Neutralization IC50, H7-ANU13", "setting": "[34]", "value": 4.26, "unit": "µg/mL"}, {"measurement": "binding result", "setting": "[35]", "value": "binds"}, {"measurement": "binding result", "setting": "[36]", "value": "binds"}, {"measurement": "binding result", "setting": "[37]", "value": "binds"}, {"measurement": "binding result", "setting": "[38]", "value": "binds"}]}
